Results: article PMC3075667

Experiments:
Δ79AAG wild type (human) [1] = biological target: Δ79AAG wild type (human) (UniProt P29372); assay: EMSA
Δ79AAG wild type (human) [2] = biological target: Δ79AAG wild type (human) (UniProt P29372); assay: competition
[3] = 3,N4-ethenocytosine opposite G (G19)

Sequence of UniProt P29372 (P29372 84-298, stated change not applied): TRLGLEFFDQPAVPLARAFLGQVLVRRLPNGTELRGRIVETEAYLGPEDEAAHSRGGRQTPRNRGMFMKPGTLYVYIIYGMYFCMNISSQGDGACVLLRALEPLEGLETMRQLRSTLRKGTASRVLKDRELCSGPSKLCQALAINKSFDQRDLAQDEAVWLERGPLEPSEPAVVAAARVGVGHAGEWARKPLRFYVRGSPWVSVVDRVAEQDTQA

Substance | Kd (Δ79AAG wild type (human) [1]; 1,N6-ethenoadenine opposite T) [nM] | IC50 (Δ79AAG wild type (human) [2]; 1,N6-ethenoadenine opposite T) [nM] | Kd (Δ79AAG wild type (human) [1]; [3]) [nM] | IC50 (Δ79AAG wild type (human) [2]; [3]) [nM]
ϵA:T 13-mer | 46 | 163 |  | 
ϵC:G 13-mer |  |  | 21 | 39
